{
  "source": "paper PMC11208452",
  "target": "T1, BMAL2 (recombinant human, Novus H00056938-Q01) (Homo sapiens) (UniProt Q8WYA1)",
  "T1 sequence (Q8WYA1 whole entry, looked up)": "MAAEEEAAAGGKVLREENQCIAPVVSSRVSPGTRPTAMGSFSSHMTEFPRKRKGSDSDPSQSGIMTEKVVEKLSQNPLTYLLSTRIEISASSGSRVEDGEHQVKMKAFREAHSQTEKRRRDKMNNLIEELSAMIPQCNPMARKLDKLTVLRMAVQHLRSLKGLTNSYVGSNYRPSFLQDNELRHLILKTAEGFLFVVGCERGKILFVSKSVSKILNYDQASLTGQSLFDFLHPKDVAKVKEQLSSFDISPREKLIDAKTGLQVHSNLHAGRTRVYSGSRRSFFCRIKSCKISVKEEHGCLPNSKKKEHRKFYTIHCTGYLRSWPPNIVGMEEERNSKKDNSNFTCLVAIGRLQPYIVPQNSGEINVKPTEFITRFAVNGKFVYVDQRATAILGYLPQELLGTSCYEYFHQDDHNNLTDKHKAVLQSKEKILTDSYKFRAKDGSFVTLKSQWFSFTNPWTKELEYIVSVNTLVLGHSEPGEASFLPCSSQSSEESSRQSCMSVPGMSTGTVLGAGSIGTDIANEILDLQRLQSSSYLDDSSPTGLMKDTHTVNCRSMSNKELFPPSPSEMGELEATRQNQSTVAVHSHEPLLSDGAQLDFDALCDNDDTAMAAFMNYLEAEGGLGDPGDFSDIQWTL",
  "experiment": "SPR",
  "settings": "BMAL2 immobilized; oligo analyte 50, 100, 200 nM; global 1:1 fit; OpenSPR (text also says BIAcore), 20 C, 30 ul/min; running buffer, salt and pH not stated (immobilization in 10 mM sodium acetate pH 5.5)",
  "data": [
    {"sequence": "GGCGCAACGCTGAGCAGCT (double strand) [human PD-L1 promoter predicted BMAL2 binding site oligo]", "values": [
      {"measurement": "Kd", "value": 209, "unit": "nM"}
    ]}
  ]
}
